Assay results published in US20170037110A1 (IMMATICS BIOTECHNOLOGIES, published 2017).

Target: T1, HLA-A*02:01 (human)
T1 construct: monomers captured on streptavidin plates; also called MHC class I
Assay: UV peptide exchange ELISA
Method in brief: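 Read-out is an ELISA on the UV-exchange reaction: monomers, diluted 100-fold, are captured on streptavidin and the β2m light chain is detected with 2 μg/ml HRP antibody and TMB at 450 nm.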

| Binder | peptide exchange yield [%] |
| --- | --- |
| ALYIGDGYVIHLA | 50 to 75 |
| AILPQLFMV | ≥ 75 |
| LLADVVPTT | 50 to 75 |
| VIWKALIHL | 50 to 75 |
| ALLGQTFSL | 50 to 75 |
| ALPVSLPQI | 50 to 75 |
| GLINTGVLSV | 20 to 50 |
| FMEGAIIYV | 50 to 75 |
| FLPDEPYIKV | 50 to 75 |
| IMEENPGIFAV | 50 to 75 |
| SQYSGQLHEV | 50 to 75 |
| GLFEDVTQPGILL | ≥ 75 |
| FIMPATVADATAV | 50 to 75 |
| KVDTVWVNV | 50 to 75 |
| FLYDEIEAEV | 50 to 75 |
| LLPPLESLATV | 20 to 50 |
| QLALKVEGV | 50 to 75 |
| TLMTSLPAL | 50 to 75 |
| IISDLTIAL | 50 to 75 |
| FLVEDLVDSL | 50 to 75 |
| YSLSSVVTV | 50 to 75 |
| ALVNVQIPL | 50 to 75 |
| FLNEFFLNV | 50 to 75 |
| SLAALVVHV | 50 to 75 |
| HIYDKVMTV | 50 to 75 |

| Binder | peptide exchange yield [%] |
| --- | --- |
| FLPEALDFV | 50 to 75 |
| NLINEINGV | 50 to 75 |
| QLLDVVLTI | 20 to 50 |
| YLQDQHLLLTV | 50 to 75 |
| SLSDGLEEV | 20 to 50 |
| VLADIELAQA | 50 to 75 |
| YLLETSGNL | 50 to 75 |
| ALIAEGIALV | 50 to 75 |
| VLDELDMEL | 20 to 50 |
| YLISELEAA | 50 to 75 |
| FLVTLNNVEV | ≥ 75 |
| LLDSKVPSV | 50 to 75 |
| ALWGGTQPLL | 20 to 50 |
| KMFEFVEPLL | ≥ 75 |
| ALFTFSPLTV | 50 to 75 |
| HLLSELEAAPYL | ≥ 75 |
| RMIEYFIDV | 50 to 75 |
| SQIALNEKLVNL | 50 to 75 |
| ILLSQTTGV | 50 to 75 |
| SIANFSEFYV | ≥ 75 |
| SLLEVNEESTV | 50 to 75 |
| VLLDDIFAQL | 50 to 75 |
| FLPDANSSV | 20 to 50 |
| TLTKVLVAL | 50 to 75 |
| RLYTGMHTV | 50 to 75 |

| Binder | peptide exchange yield [%] |
| --- | --- |
| ALLQEGEVYSA | 50 to 75 |
| GLWEIENNPTVKA | ≥ 75 |
| SLFKHDPAAWEA | ≥ 75 |
| VLFDDELLMV | 50 to 75 |
| ALNDQVFEI | 50 to 75 |
| GLFDGVPTTA | 50 to 75 |
| QLLHVGVTV | 50 to 75 |
| VLDRESPNV | 50 to 75 |
| VMITKLVEV | 50 to 75 |
| VLPDPEVLEAV | 50 to 75 |
| ILLERLWYV | 50 to 75 |
| ILRESTEEL | 50 to 75 |
| VLLEIEDLQV | ≥ 75 |
| GLAPFTEGISFV | 50 to 75 |
| FLVDTPLARA | ≥ 75 |
| YLFPGIPEL | 50 to 75 |
| YLVYILNEL | 20 to 50 |
| MTLGQIYYL | 50 to 75 |
| YLQDVVEQA | 50 to 75 |
| ALLSMTFPL | ≥ 75 |
| ILLTAIVQV | 50 to 75 |
| SLEPQIQPV | 20 to 50 |
| FMVDNEAIYDI | ≥ 75 |
